{
  "source": "patent US20190255154",
  "proteins": {"B1": {"name": "native mouse BChE (wild-type mouse butyrylcholinesterase), expressed in mice from an AAV-8 vector (protein)", "chain": "EEDFIITTKTGRVRGLSMPVLGGTVTAFLGIPYAQPPLGSLRFKKPQPLNKWPDIHNATQYANSCYQNIDQAFPGFQGSEMWNPNTNLSEDCLYLNVWIPVPKPKNATVMVWIYGGGFQTGTSSLPVYDGKFLARVERVIVVSMNYRVGALGFLAFPGNPDAPGNMGLFDQQLALQWVQRNIAAFGGNPKSITIFGESAGAASVSLHLLCPQSYPLFTRAILESGSSNAPWAVKHPEEARNRTLTLAKFTGCSKENEMEMIKCLRSKDPQEILRNERFVLPSDSILSINFGPTVDGDFLTDMPHTLLQLGKVKKAQILVGVNKDEGTAFLVYGAPGFSKDNDSLITRKEFQEGLNMYFPGVSRLGKEAVLFYYVDWLGEQSPEVYRDALDDVIGDYNIICPALEFTKKFAELENNAFFYFFEHRSSKLPWPEWMGVMHGYEIEFVFGLPLGRRVNYTRAEEIFSRSIMKTWANFAKYGHPNGTQGNSTMWPVFTSTEQKYLTLNTEKSKIYSKLRAPQCQFWRLFFPKVLEMTGDIDETEQEWKAGFHRWSNYMMDWQNQFNDYTSKKESCTAL"}},
  "target": "T1, acyl ghrelin (active hormone) in mouse blood, Q9EQX0",
  "T1 chain": "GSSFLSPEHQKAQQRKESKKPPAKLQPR",
  "data": [
    {"protein": "B1", "values": [
      {"measurement": "ratio of desacyl ghrelin (inactive peptide) over the active hormone in mouse blood, ghrelin ELISA, after AAV-BChE gene transfer (HCT116 colon cancer model)", "result": "2-fold rise"},
      {"measurement": "ratio of desacyl ghrelin (inactive peptide) over the active hormone in mouse blood, ghrelin ELISA, after AAV-BChE gene transfer (triple negative PDX model)", "result": "2-fold rise"}
    ]}
  ]
}
